Experimental data as given in publication PMC3085015.

Assays:
F14Bpa-Rop [1] = molecular target: F14Bpa-Rop (UniProt P03051); experiment: SEC
F14Bpa-Rop [2] = molecular target: F14Bpa-Rop (UniProt P03051); experiment: cross-linking
F14Bpa-Rop [3] = molecular target: F14Bpa-Rop (UniProt P03051); experiment: cross-linking + SEC
F14Bpa-Rop [4] = molecular target: F14Bpa-Rop (UniProt P03051); experiment: cross-linking; remark: listed apart in the source
wild type Rop = wild type Rop (UniProt P03051); experiment: SEC

Work on “F14Bpa-Rop (from UniProt P03051 1-63) (natural protein)” yielded a stoichiometry N (F14Bpa-Rop [1]) of 2, a stoichiometry N (F14Bpa-Rop [2]) of 4 and a stoichiometry N (F14Bpa-Rop [3]) of 4. It also gave a stoichiometry N (F14Bpa-Rop [4]) of 4.
For “wild type Rop (from UniProt P03051 1-63) (natural protein)”, the stoichiometry N (wild type Rop) was 2.
